Measurements: the supplement of paper PMC12764529
± gives the half width of the 95% confidence interval.

Columns and labels:
[1] = folding stability dG unfold (combined trypsin and chymotrypsin); higher = more stable
Summary of the method: (§1)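 Mini-proteins designed to be under 80 residues and free of cysteine were carried in a PA-tagged cDNA display construct and digested with trypsin and with chymotrypsin. Each protease was applied at 11 threefold-diluted concentrations, alongside a no-protease condition, before sequencing. K50 came from Bayesian fitting of the sequencing counts, and unfolding free energy was obtained by comparing it with a sequence-predicted unfolded-state K50 and a shared folded-state K50, for each protease separately or for both together. Designs were retained only if their AlphaFold2 dimer inter-PAE exceeded 15.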

[2] = folding stability dG unfold from trypsin proteolysis; higher = more stable
Summary of the method: as §1

[3] = folding stability dG unfold from chymotrypsin proteolysis; higher = more stable
Summary of the method: as §1

SAGGSAGGSASSVVTPISHPDGRTGTKVTLPNGTVIEFIFYPDGTIIEINHSNNTTTVTPLVSAGGSAGGSA [r18_285_JUSTAS]
folding stability dG unfold [1]: 1.53 ± 0.031 kcal/mol
folding stability dG unfold [2]: 1.44 ± 0.04 kcal/mol
folding stability dG unfold [3]: 1.55 ± 0.017 kcal/mol

SAGGSAGGSASTTVTYVEIKVTNPNPPGTPVAEYLIPLSEITEEMIEKLEKEGGLKVEVTVVLSAGGSAGGS [r12_398_JUSTAS]
folding stability dG unfold [1]: 1.41 ± 0.058 kcal/mol
folding stability dG unfold [2]: 1.2 ± 0.12 kcal/mol
folding stability dG unfold [3]: 1.44 ± 0.033 kcal/mol

SAGGSAGGSASVKELAEKLAEPGQTVMVIKRDGKEYLIVMSDEEAEALRKLFPDMEIERVRLSAGGSAGGSA [r18_198_TrROS_Hall]
folding stability dG unfold [1]: 1.81 ± 0.062 kcal/mol
folding stability dG unfold [2]: 1.59 ± 0.02 kcal/mol
folding stability dG unfold [3]: 1.93 ± 0.023 kcal/mol

SAGGSAGGSASVTVSPTPDDTWRVEVTETRYFFDPDGRPIGPVTITSSRVVSSEEEAAALLSAGGSAGGSAG [r3_232_JUSTAS]
folding stability dG unfold [1]: 0.49 ± 0.15 kcal/mol
folding stability dG unfold [2]: 0.537 ± 0.038 kcal/mol
folding stability dG unfold [3]: 0.397 ± 0.15 kcal/mol

SAGGSAGGSASVTVVPSPGPTTTVVTFSPDDTVTVTTHTVDPSAATSTPTTTTVSLSDPAAASAGGSAGGSA [r18_503_JUSTAS]
folding stability dG unfold [1]: 1.73 ± 0.03 kcal/mol
folding stability dG unfold [2]: 2.08 ± 0.044 kcal/mol
folding stability dG unfold [3]: 1.44 ± 0.015 kcal/mol

SAGGSAGGSASWITITGLLPGGRLVTTRYDPSTGSVSTETTPIPPVPAFPLGPENLALNFLLSAGGSAGGSA [r18_236_JUSTAS]
folding stability dG unfold [1]: 0.746 ± 0.13 kcal/mol
folding stability dG unfold [2]: 0.706 ± 0.044 kcal/mol
folding stability dG unfold [3]: 0.528 ± 0.19 kcal/mol

SAGGSAGGSASYIPVTYSFFFPDKPYVERVEAEYELGPDGTPRILSAKVEVFPVDFSPDELSAGGSAGGSAG [r3_138_TrMRF]
folding stability dG unfold [1]: 0.663 ± 0.068 kcal/mol
folding stability dG unfold [2]: 0.823 ± 0.039 kcal/mol
folding stability dG unfold [3]: 0.279 ± 0.16 kcal/mol

SAGGSAGGSATITITVDGKTITLEVPEDSEVEIVFDEKTGKLFIKDKKTNKVYEVSLEELLSAGGSAGGSAG [r3_137_TrROS_Hall]
folding stability dG unfold [1]: 3.92 ± 0.13 kcal/mol
folding stability dG unfold [2]: 3.58 ± 0.22 kcal/mol
folding stability dG unfold [3]: 3.98 ± 0.15 kcal/mol

SAGGSAGGSATRVEVEWKDGYLVITKYETLPNGEWKEVKTIVIPIEGNDPIAIEKAKEVIEKLSAGGSAGGS [r12_169_JUSTAS]
folding stability dG unfold [1]: 2.9 ± 0.064 kcal/mol
folding stability dG unfold [2]: 2.89 ± 0.051 kcal/mol
folding stability dG unfold [3]: 2.89 ± 0.049 kcal/mol

SAGGSAGGSATTVTVESDPATGTRFVYETDEKNPGLLKVTKVTTLPDGSVVVETGYISPEKLSAGGSAGGSA [r18_505_JUSTAS]
folding stability dG unfold [1]: 1.61 ± 0.11 kcal/mol
folding stability dG unfold [2]: 1.45 ± 0.051 kcal/mol
folding stability dG unfold [3]: 1.74 ± 0.043 kcal/mol

SAGGSAGGSATVTVTETNEDGEETTTEVEVFEVKPPPAPVLKVEAVIDPETNELVDVKVELFASAGGSAGGS [r12_539_TrROS_Hall]
folding stability dG unfold [1]: 0.784 ± 0.14 kcal/mol
folding stability dG unfold [2]: 1.36 ± 0.1 kcal/mol
folding stability dG unfold [3]: 0.201 ± 0.14 kcal/mol

SAGGSAGGSAVAEEFKKKFPDKTVTVEAFTFERTVTHPDGGSSTERVTVLNVTVSSSDDPGSAGGSAGGSAG [r3_358_TrMRF]
folding stability dG unfold [1]: 1.96 ± 0.11 kcal/mol
folding stability dG unfold [2]: 1.35 ± 0.071 kcal/mol
folding stability dG unfold [3]: 2.15 ± 0.1 kcal/mol

SAGGSAGGSAVETLVTYEVPEDLPPDSLSPEAVIARFAPLGVPTEVVEIDPATGTVTVRTLVPSAGGSAGGS [r12_733_JUSTAS]
folding stability dG unfold [1]: 0.664 ± 0.047 kcal/mol
folding stability dG unfold [2]: -0.377 ± 0.13 kcal/mol
folding stability dG unfold [3]: 1 ± 0.037 kcal/mol

SAGGSAGGSAVPFVLPDGYVLEVEPDPETGLYRIRVTSPDGRTYEFTAPPDVPLADIPVVIDDSAGGSAGGS [r12_261_TrMRF]
folding stability dG unfold [1]: 2.95 ± 0.053 kcal/mol
folding stability dG unfold [2]: 2.89 ± 0.059 kcal/mol
folding stability dG unfold [3]: 2.96 ± 0.034 kcal/mol

SAGGSAGGSAVRTIFIPGGNIKDIIELIKSDPGQPVQIHAPDGWVIKITGDKDIDIHPFPDSAGGSAGGSAG [r3_269_TrROS]
folding stability dG unfold [1]: 0.216 ± 0.15 kcal/mol
folding stability dG unfold [2]: -0.44 ± 0.2 kcal/mol
folding stability dG unfold [3]: 0.337 ± 0.084 kcal/mol

SAGGSAGGSAVTIYIPWDEILEELGLPPEDVEYKPMKNGSYSFKYKNGKPVTIIMPPEDFKSAGGSAGGSAG [r3_477_TrROS]
folding stability dG unfold [1]: 0.663 ± 0.19 kcal/mol
folding stability dG unfold [2]: -0.12 ± 0.29 kcal/mol
folding stability dG unfold [3]: 1.07 ± 0.2 kcal/mol

SAGGSAGGSAVVALTPDGALAVWFPEKGVVVVYNPATGTYTVLTVDADNTVTLEDVPPNTDVFSAGGSAGGS [r12_997_TrMRF]
folding stability dG unfold [1]: 1.34 ± 0.057 kcal/mol
folding stability dG unfold [2]: 1.46 ± 0.032 kcal/mol
folding stability dG unfold [3]: 1.13 ± 0.07 kcal/mol

SAGGSAGGSDDDENQKENQKAKPIKLEPIVEITVPYPDGFSLTVPIWRWPDGGIGIELEIFPLGSAGGSAGG [r6_326_TrROS]
folding stability dG unfold [1]: 1.3 ± 0.37 kcal/mol
folding stability dG unfold [2]: 0.867 ± 0.071 kcal/mol
folding stability dG unfold [3]: 1.44 ± 0.045 kcal/mol

SAGGSAGGSDDMIPIPFKIKLKDPNGKPHEFPVTIWINPEDGMIMIRYPNQPIMIDPDKIEIESAGGSAGGS [r20_48_TrROS]
folding stability dG unfold [1]: 1.01 ± 0.16 kcal/mol
folding stability dG unfold [2]: 0.975 ± 0.089 kcal/mol
folding stability dG unfold [3]: 1.07 ± 0.19 kcal/mol

SAGGSAGGSDIPIEIVDVEHTDNMISVIIKGPDGNYFVINFQFNPGNGKFNVNISIIPPEDLKSAGGSAGGS [r20_70_TrROS]
folding stability dG unfold [1]: 3.55 ± 0.26 kcal/mol
folding stability dG unfold [2]: 2.07 ± 0.21 kcal/mol
folding stability dG unfold [3]: 3.95 ± 0.26 kcal/mol

SAGGSAGGSDKIVERLQKRFPNVRISNIQPTPDGVTIQIENPDGKEFTIPYDELEKHGIEIEPSAGGSAGGS [r12_3_TrROS]
folding stability dG unfold [1]: 0.456 ± 0.16 kcal/mol
folding stability dG unfold [2]: 0.217 ± 0.17 kcal/mol
folding stability dG unfold [3]: 0.595 ± 0.085 kcal/mol
